Laboratory results from IntAct's records for PubMed 31412244.

B1: Autophagy-related protein 2 homolog A (Homo sapiens), Q2TAZ0 (parent)
chain: MSRWLWPWSNCVKERVCRYLLHHYLGHFFQEHLSLDQLSLDLYKGSVALRDIHLEIWSVNEVLESMESPLELVEGFVGSIEVAVPWAALLTDHCTVRVSGLQLTLQPRRGPAPGAADSQSWASCMTTSLQLAQECLRDGLPEPSEPPQPLEGLEMFAQTIETVLRRIKVTFLDTVVRVEHSPGDGERGVAVEVRVQRLEYCDEAVRDPSQAPPVDVHQPPAFLHKLLQLAGVRLHYEELPAQEEPPEPPLQIGSCSGYMELMVKLKQNEAFPGPKLEVAGQLGSLHLLLTPRQLQQLQELLSAVSLTDHEGLADKLNKSRPLGAEDLWLIEQDLNQQLQAGAVAEPLSPDPLTNPLLNLDNTDLFFSMAGLTSSVASALSELSLSDVDLASSVRSDMASRRLSAQAHPAGKMAPNPLLDTMRPDSLLKMTLGGVTLTLLQTSAPSSGPPDLATHFFTEFDATKDGPFGSRDFHHLRPRFQRACPCSHVRLTGTAVQLSWELRTGSRGRRTTSMEVHFGQLEVLECLWPRGTSEPEYTEILTFPGTLGSQASARPCAHLRHTQILRRVPKSRPRRSVACHCHSELALDLANFQADVELGALDRLAALLRLATVPAEPPAGLLTEPLPAMEQQTVFRLSAPRATLRLRFPIADLRPEPDPWAGQAVRAEQLRLELSEPQFRSELSSGPGPPVPTHLELTCSDLHGIYEDGGKPPVPCLRVSKALDPKSTGRKYFLPQVVVTVNPQSSSTQWEVAPEKGEELELSVESPCELREPEPSPFSSKRTMYETEEMVIPGDPEEMRTFQSRTLALSRCSLEVILPSVHIFLPSKEVYESIYNRINNDLLMWEPADLLPTPDPAAQPSGFPGPSGFWHDSFKMCKSAFKLANCFDLTPDSDSDDEDAHFFSVGASGGPQAAAPEAPSLHLQSTFSTLVTVLKGRITALCETKDEGGKRLEAVHGELVLDMEHGTLFSVSQYCGQPGLGYFCLEAEKATLYHRAAVDDYPLPSHLDLPSFAPPAQLAPTIYPSEEGVTERGASGRKGQGRGPHMLSTAVRIHLDPHKNVKEFLVTLRLHKATLRHYMALPEQSWHSQLLEFLDVLDDPVLGYLPPTVITILHTHLFSCSVDYRPLYLPVRVLITAETFTLSSNIIMDTSTFLLRFILDDSALYLSDKCEVETLDLRRDYVCVLDVDLLELVIKTWKGSTEGKLSQPLFELRCSNNVVHVHSCADSCALLVNLLQYVMSTGDLHPPPRPPSPTEIAGQKLSESPASLPSCPPVETALINQRDLADALLDTERSLRELAQPSGGHLPQASPISVYLFPGERSGAPPPSPPVGGPAGSLGSCSEEKEDEREEEGDGDTLDSDEFCILDAPGLGIPPRDGEPVVTQLHPGPIVVRDGYFSRPIGSTDLLRAPAHFPVPSTRVVLREVSLVWHLYGGRDFGPHPGHRARTGLSGPRSSPSRCSGPNRPQNSWRTQGGSGRQHHVLMEIQLSKVSFQHEVYPAEPATGPAAPSQELEERPLSRQVFIVQELEVRDRLASSQINKFLYLHTSERMPRRAHSNMLTIKALHVAPTTNLGGPECCLRVSLMPLRLNVDQDALFFLKDFFTSLVAGINPVVPGETSAEARPETRAQPSSPLEGQAEGVETTGSQEAPGGGHSPSPPDQQPIYFREFRFTSEVPIWLDYHGKHVTMDQVGTFAGLLIGLAQLNCSELKLKRLCCRHGLLGVDKVLGYALNEWLQDIRKNQLPGLLGGVGPMHSVVQLFQGFRDLLWLPIEQYRKDGRLMRGLQRGAASFGSSTASAALELSNRLVQAIQATAETVYDILSPAAPVSRSLQDKRSARRLRRGQQPADLREGVAKAYDTVREGILDTAQTICDVASRGHEQKGLTGAVGGVIRQLPPTVVKPLILATEATSSLLGGMRNQIVPDAHKDHALKWRSDSAQD
partner: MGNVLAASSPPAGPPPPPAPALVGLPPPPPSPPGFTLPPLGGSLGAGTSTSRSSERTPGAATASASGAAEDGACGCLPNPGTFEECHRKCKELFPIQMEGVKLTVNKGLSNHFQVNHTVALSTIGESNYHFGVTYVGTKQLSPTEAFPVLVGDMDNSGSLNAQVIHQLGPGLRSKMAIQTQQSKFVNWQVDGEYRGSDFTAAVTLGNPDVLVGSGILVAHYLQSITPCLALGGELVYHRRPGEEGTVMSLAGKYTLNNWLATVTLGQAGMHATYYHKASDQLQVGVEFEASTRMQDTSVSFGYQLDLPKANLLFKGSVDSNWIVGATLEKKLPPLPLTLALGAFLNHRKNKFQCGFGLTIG
B2: Autophagy-related protein 2 homolog A (Homo sapiens), Q2TAZ0 (parent)
chain: B1 chain
partner: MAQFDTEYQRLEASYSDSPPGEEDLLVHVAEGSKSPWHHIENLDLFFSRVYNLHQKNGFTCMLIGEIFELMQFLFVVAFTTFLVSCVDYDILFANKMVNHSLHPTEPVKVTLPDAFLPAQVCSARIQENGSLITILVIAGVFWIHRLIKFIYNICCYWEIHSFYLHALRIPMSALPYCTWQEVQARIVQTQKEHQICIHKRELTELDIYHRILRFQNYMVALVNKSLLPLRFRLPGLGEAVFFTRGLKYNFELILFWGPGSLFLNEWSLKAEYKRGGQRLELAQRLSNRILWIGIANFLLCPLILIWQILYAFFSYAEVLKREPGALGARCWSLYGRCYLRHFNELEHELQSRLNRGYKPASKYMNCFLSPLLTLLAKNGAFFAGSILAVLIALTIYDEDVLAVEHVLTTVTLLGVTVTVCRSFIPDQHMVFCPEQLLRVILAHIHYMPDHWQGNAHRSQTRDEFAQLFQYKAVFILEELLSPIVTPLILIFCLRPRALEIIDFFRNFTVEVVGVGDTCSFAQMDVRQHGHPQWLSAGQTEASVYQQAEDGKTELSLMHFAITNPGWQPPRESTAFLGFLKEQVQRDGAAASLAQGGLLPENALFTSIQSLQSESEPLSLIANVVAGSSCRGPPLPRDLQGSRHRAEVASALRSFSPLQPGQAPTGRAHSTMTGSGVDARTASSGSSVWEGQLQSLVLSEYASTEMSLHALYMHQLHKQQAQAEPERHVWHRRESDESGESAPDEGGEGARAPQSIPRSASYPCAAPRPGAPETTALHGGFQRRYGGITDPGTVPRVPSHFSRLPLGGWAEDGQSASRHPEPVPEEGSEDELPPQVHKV

Variants of: B1
Conditions: with tom40_human TOMM40, O96008

Row | effect of a mutation on the interaction | Variant
1 | disrupting interaction strength | L1798A;L1800A;L1804A
2 | decreasing interaction strength | R1777A;R1780A;R1784A;L1798A;L1800A;L1804A
3 | decreasing interaction strength | R1777A;R1780A;R1784A

Variants of: B2
Conditions: with atg9a_human ATG9A

Row | effect of a mutation on the interaction | Variant
4 | disrupting interaction strength | Y1395A;F1396A;S1397A
